# Target: human cGAS (Homo sapiens, UniProt Q8N884 1-522)
# Assay: EMSA; 1 uM DNA, 3 uM cGAS; EMSA: 1 uM DNA, 0-5 uM cGAS, 20 mM Tris-HCl pH 8.0 (4 C), 200 mM NaCl, on ice 30 min; 8% native PAGE in 25 mM Tris-HCl pH 8.5, 190 mM glycine; ethidium bromide
# Conditions: protein: recombinant; tags: none (N-terminal His6-lipoyl domain removed with TEV protease); 20 bp duplex, unpaired G3 on all four ends (fork at both ends)
# Chain of human cGAS (Q8N884 whole entry): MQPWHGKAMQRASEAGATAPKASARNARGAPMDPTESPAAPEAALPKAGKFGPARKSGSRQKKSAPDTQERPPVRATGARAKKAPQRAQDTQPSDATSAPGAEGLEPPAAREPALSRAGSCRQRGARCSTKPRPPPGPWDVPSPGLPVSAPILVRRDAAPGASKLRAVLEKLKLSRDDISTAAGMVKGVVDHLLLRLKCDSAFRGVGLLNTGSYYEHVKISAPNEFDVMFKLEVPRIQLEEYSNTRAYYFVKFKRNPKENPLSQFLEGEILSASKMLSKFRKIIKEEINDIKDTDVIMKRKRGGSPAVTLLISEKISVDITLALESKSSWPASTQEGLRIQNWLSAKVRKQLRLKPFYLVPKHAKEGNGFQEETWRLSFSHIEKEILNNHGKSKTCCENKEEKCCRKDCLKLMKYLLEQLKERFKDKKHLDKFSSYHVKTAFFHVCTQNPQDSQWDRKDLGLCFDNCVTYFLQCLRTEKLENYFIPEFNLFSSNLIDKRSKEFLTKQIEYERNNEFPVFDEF
binder,measurement,value
G3 Y-form DNA (dsDNA) DNA 1: GGGGAACTCCAGCAGGACCATTGGGG DNA 2: GGGCAATGGTCCTGCTGGAGTTCGGG,binding signal,~0 % unbound DNA at cGAS/DNA ratio 3
